The text below walks through data of the RNAGym collection of RNA variant scans (doi:10.7554/elife.80360).

To fix the notation:
B1: HDV Ribozyme (parent)
chain: GGCCGGCAUGGUCCCAGCCUCCUCGCUGGCGCCGGCUGGGCAACAUUCCGAGGGGACCGUCCCCUCGGUAAUGGCGAAUGGGACCCA

In this series the parent is B1. Nature of the series: self-cleavage, relative activity (ratio to wild type); higher = more cleavage; co-transcriptional.
As to G34U C84A, the self-cleavage is 0.176.

As for C14U G35C, the self-cleavage worked out at 0.123.

Consider C58G C62G, for which the self-cleavage was 0.639.

With G2U A43C, the self-cleavage came out at 0.0292.

On to G54C C62U, for which the self-cleavage is 0.746.

As to C30A G52A, the self-cleavage worked out at 0.522.

Consider G1A G31A, for which the self-cleavage is 0.131.

Regarding G10U C24G, the self-cleavage turned out to be 0.0886.

On to C7U G40C, for which the self-cleavage worked out at 0.166.

Take A51C G54U: the self-cleavage stood at 0.659.

As to U27A A42U, the self-cleavage turned out to be 0.

On to C49A G67A, for which the self-cleavage is 1.27.

C4G U47C: the self-cleavage is 0.346.

As to C13G G38U, the self-cleavage came to 0.0292.

G35C U72C: the self-cleavage stood at 0.156.

With G35C U72A, the self-cleavage was determined as 0.

G25C G67C: the self-cleavage is 0.0415.

For the variant C21A U60G, the self-cleavage was determined as 0.138.

Consider C58U A83G, for which the self-cleavage was found to be 0.681.

Regarding G2A U12C, the self-cleavage is 0.0627.

For the variant G68C C75G, the self-cleavage turned out to be 0.128.

In the case of G52A C66G, the self-cleavage was 0.841.

In the case of A51G C62A, the self-cleavage was 0.812.

In the case of C30U G59U, the self-cleavage stood at 0.831.

Consider G40U C84A, for which the self-cleavage was 0.383.

For G10U C66U, the self-cleavage worked out at 0.728.

With U47A A51U, the self-cleavage came out at 1.03.

In the case of G25A G40A, the self-cleavage came out at 0.317.

Consider G40A G80C, for which the self-cleavage is 0.161.

Consider G40A G80A, for which the self-cleavage was 0.427.

Consider G17A C86G, for which the self-cleavage came to 0.591.

For C18U A45G, the self-cleavage was 0.306.

Regarding G25A C26G, the self-cleavage was 1.11.

With C49U A71G, the self-cleavage is 1.16.

On to A16G C62G, for which the self-cleavage turned out to be 0.369.

In the case of C21U U72G, the self-cleavage was 0.19.

With C57U G59C, the self-cleavage is 0.89.

Regarding C13G A51G, the self-cleavage is 0.123.

Take U23A U65C: the self-cleavage was determined as 1.09.

Turning to C14A C84G, the self-cleavage is 0.623.

Turning to C13G C15A, the self-cleavage was 0.128.

With G68A U72G, the self-cleavage was 0.312.

With G35C U65A, the self-cleavage was 0.233.

On to G6U G38A, for which the self-cleavage worked out at 0.0396.

As to G53A A77G, the self-cleavage came out at 0.916.

On to G52A U72A, for which the self-cleavage is 0.423.

On to G54U G76A, for which the self-cleavage amounted to 0.981.

Regarding U9C G17A, the self-cleavage was found to be 1.08.

On to C14G A71G, for which the self-cleavage came out at 0.712.

Regarding A16U C32G, the self-cleavage worked out at 0.156.

C32G G54C: the self-cleavage is 0.086.

As to U47C A71C, the self-cleavage was 0.883.

On to G52C C84G, for which the self-cleavage was 0.978.

Turning to G29A A78C, the self-cleavage worked out at 0.0997.

C41A G68C: the self-cleavage stood at 0.665.

Take C19G C26U: the self-cleavage was 0.249.

G1U C19A: the self-cleavage turned out to be 0.383.

As to U12G U65C, the self-cleavage turned out to be 0.831.

For A42C U46A, the self-cleavage stood at 0.107.

A42C U46G: the self-cleavage came out at 0.166.

With C26A C33A, the self-cleavage is 0.161.

Take C19A C64A: the self-cleavage was 0.141.

With A71U G73A, the self-cleavage came out at 0.432.

Turning to G80A G82C, the self-cleavage was 0.0978.

Take U60A G80U: the self-cleavage was 0.299.

In the case of G11U G73U, the self-cleavage came to 0.111.

For G1U A70C, the self-cleavage turned out to be 0.302.

In the case of U9C C86U, the self-cleavage is 1.35.

For the variant G59U G80U, the self-cleavage is 0.19.

In the case of C13A C86G, the self-cleavage is 0.178.

Consider C19U G67A, for which the self-cleavage turned out to be 0.0739.

Regarding A45U C49G, the self-cleavage came out at 0.458.

Consider G17U C44U, for which the self-cleavage came out at 0.146.

Take C30U U69C: the self-cleavage worked out at 0.796.

For C63A U79A, the self-cleavage was 0.636.

As for G38A A83U, the self-cleavage is 0.13.

For A16G C75G, the self-cleavage came out at 0.222.

For C26A G39C, the self-cleavage turned out to be 0.

As to G10A G52C, the self-cleavage came to 0.812.

As for G25C G55C, the self-cleavage was determined as 0.106.

Consider U79C A87G, for which the self-cleavage came to 0.47.

In the case of C32A A51G, the self-cleavage was 0.162.

For C4G C13G, the self-cleavage worked out at 0.

As to G25C G73C, the self-cleavage was found to be 0.0773.

With G76C G80C, the self-cleavage is 0.093.

In the case of C4U C49G, the self-cleavage amounted to 0.604.

In the case of C36U U60C, the self-cleavage is 0.959.

For the variant G29U C75U, the self-cleavage is 0.0767.

For the variant U9A G68U, the self-cleavage worked out at 1.08.

With C14U A83G, the self-cleavage was 0.54.

Turning to G52U G73C, the self-cleavage came out at 0.155.

Take C19U C33G: the self-cleavage was determined as 0.0923.

Turning to G68U G80A, the self-cleavage came out at 0.171.

As to U69G C85G, the self-cleavage worked out at 1.01.

In the case of C22U G82A, the self-cleavage was 0.101.

Take C63U A83U: the self-cleavage is 0.584.

As for C32A G34U, the self-cleavage was found to be 0.0791.

Consider C30A G67A, for which the self-cleavage came to 0.623.

As to G1U A87C, the self-cleavage was 0.408.

Regarding A16C G31U, the self-cleavage is 0.

As for G10U U72G, the self-cleavage stood at 0.407.

G11U C32A: the self-cleavage worked out at 0.0545.

G1A C32U: the self-cleavage was 0.133.

Consider A43G G74C, for which the self-cleavage turned out to be 0.0791.

For the variant C41G A83U, the self-cleavage is 0.77.

In the case of U27C C57U, the self-cleavage is 0.707.

As to C7U U9C, the self-cleavage was 1.02.

For the variant U65C C85A, the self-cleavage amounted to 0.991.

For the variant C33G C85A, the self-cleavage was found to be 0.175.

Consider G52U C66U, for which the self-cleavage came out at 0.737.

In the case of U20A G25A, the self-cleavage was found to be 0.0852.

Turning to G2C C85G, the self-cleavage stood at 0.0563.

For C24G C32U, the self-cleavage worked out at 0.0773.

As for C7A G29C, the self-cleavage stood at 0.0707.

Take G50A A87U: the self-cleavage is 1.08.

Turning to U9G C15U, the self-cleavage amounted to 0.962.

As for G50C G59U, the self-cleavage is 0.932.

As for G25U G74U, the self-cleavage turned out to be 0.0268.

As for C7G U47G, the self-cleavage was 0.

Take G1C G59A: the self-cleavage stood at 0.19.

In the case of G50A C61A, the self-cleavage was 0.875.

For U65A A77G, the self-cleavage is 0.643.

For C21G G40C, the self-cleavage worked out at 0.0898.

On to C18A C66U, for which the self-cleavage was found to be 0.0779.

Turning to U9A A83U, the self-cleavage is 0.643.

Regarding C24A U37C, the self-cleavage was determined as 0.974.

Take G39C G80A: the self-cleavage was determined as 0.0511.

As for C14U C75U, the self-cleavage came out at 0.138.

As to G39C G67U, the self-cleavage is 0.277.

For the variant C7A, the self-cleavage stood at 0.644.

With G38A G73A, the self-cleavage was 0.0875.

Turning to G28U A56U, the self-cleavage is 0.0941.

For the variant A8G C86G, the self-cleavage was found to be 1.23.

Consider C3U C21A, for which the self-cleavage came out at 0.122.

For G50C A77C, the self-cleavage is 0.302.

As to C14G C48G, the self-cleavage worked out at 0.332.

Turning to U65G C86G, the self-cleavage was determined as 0.752.

Take G2C C15U: the self-cleavage stood at 0.0563.

On to G2A G38A, for which the self-cleavage was found to be 0.0314.

For the variant A45G G73U, the self-cleavage came to 0.415.

For U12A U60A, the self-cleavage stood at 0.453.

With A51C C58U, the self-cleavage is 0.95.

Consider C7U A78G, for which the self-cleavage was determined as 0.375.

For C15G C63A, the self-cleavage came out at 0.684.

Turning to U27G A71C, the self-cleavage came to 0.7.

In the case of G53C U72G, the self-cleavage was 0.697.

C7G C32U: the self-cleavage came out at 0.104.

On to C44U C57G, for which the self-cleavage is 0.612.

A78U G82A: the self-cleavage came out at 0.109.

In the case of C3A G10C, the self-cleavage came out at 0.504.

For the variant U23A G80A, the self-cleavage came out at 0.18.

Regarding G2U G55C, the self-cleavage came out at 0.116.

Consider G1A G10A, for which the self-cleavage amounted to 0.151.

In the case of C22U C48A, the self-cleavage is 0.815.

In the case of C75G A78C, the self-cleavage was 0.151.

For the variant G50C C64G, the self-cleavage stood at 0.383.

Take A51C G74C: the self-cleavage worked out at 0.196.

Take A42C C84A: the self-cleavage stood at 0.17.

As to G39C A42U, the self-cleavage turned out to be 0.227.

Consider C75G G80U, for which the self-cleavage came out at 0.104.

In the case of A8C U65C, the self-cleavage came to 0.684.

For U46C G76A, the self-cleavage stood at 1.01.

In the case of G38C G67U, the self-cleavage is 0.366.

A16U G74C: the self-cleavage was 0.175.

As to C15G G39A, the self-cleavage was 0.341.

As for C4A C84A, the self-cleavage was 0.192.

For the variant C26G C75U, the self-cleavage came to 0.262.
